# Legend:
# Assay in all cases: single-filament TIRF microscopy of microtubule growth
# [1] = target: recombinant α/βIIB tubulin heterodimer (human) (UniProt P68363)
# [2] = target: recombinant α/βIIB-tail-III tubulin heterodimer (human) (UniProt P68363)
# [3] = target: recombinant α/βIII-tail-IIB tubulin heterodimer (human) (UniProt P68363)
substance,measurement,setting,value
recombinant α/βIIB tubulin heterodimer (from UniProt P68363-1 1-451; Q9BVA1 1-445) (complex),koff,[1],2.6 s⁻¹
same,kon,[1],1.9e+06 M⁻¹ s⁻¹
recombinant α/βIIB-tail-III tubulin heterodimer (from UniProt P68363-1 1-451; Q9BVA1 1-427; Q13509 428-450) (complex),koff,[2],5.5 s⁻¹
same,kon,[2],2e+06 M⁻¹ s⁻¹
recombinant α/βIII-tail-IIB tubulin heterodimer (from UniProt P68363-1 1-451; Q13509 1-427; Q9BVA1 428-445) (complex),koff,[3],2.4 s⁻¹
same,kon,[3],1.8e+06 M⁻¹ s⁻¹

# Reference: PMC4878094
